Source: patent publication US20220153844A1 (INVENRA, published 2022)

Tests used:
[1] = biological target: T1, mouse CTLA4 (target of muSNIPER and anti-muCTLA4) (mouse, UniProt P09793 36-161, limits assumed, biotinylated in the blocking assay); experiment: BLI, biotinylated mouse CTLA4 (B-mTarget2) on streptavidin sensor, then antibody or CD86 ligand
T1 construct: also called Target 2

[2] = biological target: T2, huCTLA4 (biotinylated human CTLA4 for BLI) (human, UniProt P16410 36-161, limits assumed, biotinylated); experiment: BLI steady state analysis; biotinylated antigen on streptavidin sensor, bispecific 2 µM to 31.25 nM
T2 construct: also called Target 2
T2 sequence (P16410 36-161 limits assumed): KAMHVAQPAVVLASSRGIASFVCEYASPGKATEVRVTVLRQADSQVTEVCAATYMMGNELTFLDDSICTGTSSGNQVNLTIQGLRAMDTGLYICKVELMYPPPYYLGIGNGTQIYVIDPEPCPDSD

[3] = biological target: T3, muCD25 transiently expressed on Expi293 cells (Expi293-muCD25) (mouse, UniProt P01590 22-268); experiment: flow cytometry, biotinylated mouse IL-2 on Expi293 muCD25 cells, streptavidin-PE
T3 construct: whole, on cells; also called murine CD25; single positive CD25+ cells
T3 sequence (looked up): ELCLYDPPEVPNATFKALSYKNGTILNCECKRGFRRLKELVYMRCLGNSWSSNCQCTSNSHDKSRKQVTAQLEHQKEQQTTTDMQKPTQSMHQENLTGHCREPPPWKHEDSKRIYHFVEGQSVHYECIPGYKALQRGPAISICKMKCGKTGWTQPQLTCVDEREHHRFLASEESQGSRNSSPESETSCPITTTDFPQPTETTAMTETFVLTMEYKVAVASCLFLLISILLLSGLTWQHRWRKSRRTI

[4] = biological target: T4, CTLA4 (antigen of Examples 10 and 13) (UniProt P16410 36-161, limits assumed); experiment: BLI (Octet); antigen immobilised, B-Body as analyte
T4 construct: Immobilised antigen in the Octet assay
T4 sequence (P16410 36-161 limits assumed): as the sequence (P16410 36-161 limits assumed) above
Source text: In each instance, the antigen is immobilized and the B-Body is the analyte.

[5] = biological target: T5, mouse CD25 + CTLA4 together (Table 29) (mouse, UniProt P01590 22-236; P09793 36-161, limits assumed); experiment: bivalent affinity to both CD25 and CTLA4, summary in Table 29; bivalent, CD25 + CTLA4 together
T5 construct: the format is not described
T5 sequence (P09793 36-161 limits assumed, one chain of several): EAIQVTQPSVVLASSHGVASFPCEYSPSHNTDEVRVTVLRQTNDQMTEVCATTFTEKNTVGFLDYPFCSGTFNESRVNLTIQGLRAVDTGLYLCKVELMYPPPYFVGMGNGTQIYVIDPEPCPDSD

[6] = biological target: T6, mouse CD25 (target of muSNIPER in Table 29) (mouse, UniProt P01590 22-236, limits assumed); experiment: monovalent affinity, summary in Table 29 (text: biolayer interferometry; data not shown); monovalent, CD25 alone
T6 construct: also called muCD25
T6 sequence (looked up): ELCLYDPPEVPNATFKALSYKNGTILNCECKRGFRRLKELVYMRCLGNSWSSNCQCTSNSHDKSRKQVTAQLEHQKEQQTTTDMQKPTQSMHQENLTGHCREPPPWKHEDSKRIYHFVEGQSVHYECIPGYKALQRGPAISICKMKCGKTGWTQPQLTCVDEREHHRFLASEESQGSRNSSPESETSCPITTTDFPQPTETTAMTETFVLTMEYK

[7] = biological target: T1, mouse CTLA4 (target of muSNIPER and …); experiment: monovalent affinity, summary in Table 29 (text: biolayer interferometry; data not shown); monovalent, CTLA4 alone

T1 sequence (P09793 36-161 limits assumed): as the sequence (P09793 36-161 limits assumed, one chain of several) above

B1: anti-muCTLA4, parental bivalent monospecific monoclonal antibody (antibody, IgG1, V domains shown)
VH: EVQLVESGGGLVQPGGSLRLSCAASGFTFSSYYIHWVRQAPGKGLEWVASISSYADYTDYADSVKGRFTISADTSKNTAYLQMNSLRAEDTAVYYCARQSYYGLDYWGQGTLVTVSS
VL: DIQMTQSPSSLSASVGDRVTITCRASQSVSSAVAWYQQKPGKAPKLLIYSASSLYSGVPSRFSGSRSGTDFTLTISSLQPEDFATYYCQQLSRGPSTFGQGTKVEIK
notes: Parent antibodies of the discovery campaign are in a human full-length IgG1 format; copies: 2 + 2
binding result [1]: binds

B2: BC1 1×1 B-Body huSNIPER 19×8 binding molecule (bispecific antibody)
chain 1: not shown
chain 2: EVQLVESGGGLVQPGGSLRLSCAASGFTFSGYWIHWVRQAPGKGLEWVAAITSRDSYTYYADSVKGRFTISADTSKNTAYLQMNSLRAEDTAVYYCARGSYLGSAFDYWGQGTLVTVSSASPREPQVYTDPPSRDELTKNQVSLTCLVKGFYPSDIAVEWESNGQPENNYKTTPPVLDSDGSFFLYSKLTVDKSRWQQGNVFSCSVMHEALHNHYTQKSLSLSGEC
chain 3: SDIQMTQSPSSLSASVGDRVTITCRASQSVSSAVAWYQQKPGKAPKLLIYSASSLYSGVPSRFSGSRSGTDFTLTISSLQPEDFATYYCQQYSSQPATFGQGTKVEIKRTVAAPSVFIFPPSDEQLKSGTASVVCLLNNFYPREAKVQWKVDNALQSGNSQESVTEQDSKDSTYSLSSTLTLSKADYEKHKVYACEVTHQGLSSPVTKSFNRGECDKTHTCPPCPAPELLGGPSVFLFPPKPKDTLMISRTPEVTCVVVDVSHEDPEVKFNWYVDGVEVHNAKTKPREEQYNSTYRVVSVLTVLHQDWLNGKEYKCKVSNKALPAPIEKTISKAKGQPREPQVCTLPPSREEMTKNQVSLSCAVKGFYPSDIAVEWESNGQPENNYKTTPPVLDSDGSFFLVSKLTVDKSRWQQGNVFSCSVMHEALHNHYTQKSLSLSPGK
chain 4: EVQLVESGGGLVQPGGSLRLSCAASGFTFSSYYIHWVRQAPGKGLEWVAKIQPKGGYTYYADSVKGRFTISADTSKNTAYLQMNSLRAEDTAVYYCARSYYYRPHAFDYWGQGTLVTVSSASTKGPSVFPLAPSSKSTSGGTAALGCLVKDYFPEPVTVSWNSGALTSGVHTFPAVLQSSGLYSLSSVVTVPSSSLGTQTYICNVNHKPSNTKVDKKVEPPKSC
Kd [2]: 19 nM

B3: biotinylated mouse recombinant IL-2 ligand (ligand, UniProt P04351 21-169, looked up)
chain: APTSSSTSSSTAEAQQQQQQQQQQQQHLEQLLMDLQELLSRMENYRNLKLPRMLTFKFYLPKQATELKDLQCLEDELGPLRHVLDLTQSKSFQLEDAENFISNIRVTVVKLKGSDNTFECQFDDESATVVDFLRRWIAFCQSIISTSPQ
modifications: biotinylated
binding result [3]: binds

B4: bivalent bispecific B-Body “BC1” (bispecific antibody)
chain 1: not shown
chain 2: EVQLVESGGGLVQPGGSLRLSCAASGFTFSDYDIHWVRQAPGKGLEWVGDITPYDGTTNYADSVKGRFTISADTSKNTAYLQMNSLRAEDTAVYYCARLVGEIATGFDYWGQGTLVTVSSASPREPQVYTDPPSRDELTKNQVSLTCLVKGFYPSDIAVEWESNGQPENNYKTTPPVLDSDGSFFLYSKLTVDKSRWQQGNVFSCSVMHEALHNHYTQKSLSLSGEC
chain 3: not shown
chain 4: QVQLVESGGGVVQPGRSLRLDCKASGITFSNSGMHWVRQAPGKGLEWVAVIWYDGSKRYYADSVKGRFTISRDNSKNTLFLQMNSLRAEDTAVYYCATNDDYWGQGTLVTVSSASTKGPSVFPLAPSSKSTSGGTAALGCLVKDYFPEPVTVSWNSGALTSGVHTFPAVLQSSGLYSLSSVVTVPSSSLGTQTYICNVNHKPSNTKVDKKVEPPKSC
notes: A:F site specific for Antigen A, H:L site (nivolumab) specific for human PD1
binding result [4]: no binding

B5: Mouse Surrogate SNIPER antibody (muSNIPER) (bispecific antibody)
chain 1: not shown
chain 2: EVQLVESGGGLVQPGGSLRLSCAASGFTFSSYYIHWVRQAPGKGLEWVASISSYADYTDYADSVKGRFTISADTSKNTAYLQMNSLRAEDTAVYYCARQSYYGLDYWGQGTLVTVSSASPREPQVYTDPPSRDELTKNQVSLTCLVKGFYPSDIAVEWESNGQPENNYKTTPPVLDSDGSFFLYSKLTVDKSRWQQGNVFSCSVMHEALHNHYTQKSLSLSGEC
chain 3: DIQMTQSPSSLSASVGDRVTITCRASQSVSSAVAWYQQKPGKAPKLLIYSASSLYSGVPSRFSGSRSGTDFTLTISSLQPEDFATYYCQQWYTSPLTFGQGTKVEIKRTVAAPSVFIFPPSDEQLKSGTASVVCLLNNFYPREAKVQWKVDNALQSGNSQESVTEQDSKDSTYSLSSTLTLSKADYEKHKVYACEVTHQGLSSPVTKSFNRGECDKTHTCPPCPAPELLGGPSVFLFPPKPKDTLMISRTPEVTCVVVDVSHEDPEVKFNWYVDGVEVHNAKTKPREEQYNSTYRVVSVLTVLHQDWLNGKEYKCKVSNKALPAPIEKTISKAKGQPREPQVCTLPPSREEMTKNQVSLSCAVKGFYPSDIAVEWESNGQPENNYKTTPPVLDSDGSFFLVSKLTVDKSRWQQGNVFSCSVMHEALHNHYTQKSLSLSPGK
chain 4: EVQLVESGGGLVQPGGSLRLSCAASGFTFRQYFIHWVRQAPGKGLEWVAAIHPDSDFTYYADSVKGRFTISADTSKNTAYLQMNSLRAEDTAVYYCARGGVAIESGYALDYWGQGTLVTVSSASTKGPSVFPLAPSSKSTSGGTAALGCLVKDYFPEPVTVSWNSGALTSGVHTFPAVLQSSGLYSLSSVVTVPSSSLGTQTYICNVNHKPSNTKVDKKVEPPKSC
notes: Chains 1 and 2 form the CTLA4 arm, chains 3 and 4 the CD25 arm; BC1 scaffold; also called mSNIPER; muSINPER
Kd [5]: < 5 nM | Kd [6]: > 300 nM | Kd [7]: > 100 nM
